Molecular target: HLA-A*24:02 (Homo sapiens, UniProt P04439, D101N/D140Y/D185E/E176V/E190D/F33S/G103R/G107R/I119L/I121M/I306V/K335N/L105A/L180Q/L300P/N151K/N90K/Q86E/Q94H/R106L/R138H/R89G/T104I/T345S/V100E/W191G/Y123F)
Experiment: MHC binding assay, UV-ligand exchange with β2m ELISA, HLA-A*24:02
Settings: peptide exchange yield
Source text: Candidate peptides for T cell based therapies according to the present invention were further tested for their MHC binding capacity (affinity). The individual peptide-MHC complexes were produced by UV-ligand exchange, where a UV-sensitive peptide is cleaved upon UV-irradiation, and exchanged with the peptide of interest as analyzed. Only peptide candidates that can effectively bind and stabilize the peptide-receptive MHC molecules prevent dissociation of the MHC complexes. To determine the yield of the exchange reaction, an ELISA was performed based on the detection of the light chain (β2m) of stabilized MHC complexes. The assay was performed as generally described in Rodenko et al. (Rodenko et al., 2006).
96 well MAXISorp plates (NUNC) were coated over night with 2 ug/ml streptavidin in PBS at room temperature, washed 4× and blocked for 1 h at 37° C. in 2% BSA containing blocking buffer. Refolded HLA-A*02:01/MLA-001 monomers served as standards, covering the range of 15-500 ng/ml. Peptide-MHC monomers of the UV-exchange reaction were diluted 100-fold in blocking buffer. Samples were incubated for 1 h at 37° C., washed four times, incubated with 2 ug/ml HRP conjugated anti-β2m for 1 h at 37° C., washed again and detected with TMB solution that is stopped with […]. Absorption was measured at 450 nm. Candidate peptides that show a high exchange yield (preferably higher than 50%, most preferred higher than 75%) are generally preferred for a generation and production of antibodies or fragments thereof, and/or T cell receptors or fragments thereof, as they show sufficient avidity to the MHC molecules and prevent dissociation of the MHC complexes.

Substance | Peptide exchange
57 (RFPPTPPLF; listed as Homo sapiens) [compound 57] | “++++” (>75% = ++++)
58 (KYLADLPTL; listed as Homo sapiens) [compound 58] | “++++” (>75% = ++++)
61 (IFKEHNFSF; listed as Homo sapiens) [compound 61] | “++++” (>75% = ++++)
67 (VFLPSEGFNF; listed as Homo sapiens) [compound 67] | “+++” (>50 = +++)
68 (LYQDRFDYL; listed as Homo sapiens) [compound 68] | “++++” (>75% = ++++)
74 (SYADNILSF; listed as Homo sapiens) [compound 74] | “++++” (>75% = ++++)
75 (RFYLLTEHF; listed as Homo sapiens) [compound 75] | “+++” (>50 = +++)

Further lines, results first:

Peptide exchange | Substance
“++++” (>75% = ++++) | 62 (YYLSHLERI; listed as Homo sapiens) [compound 62]
“+++” (>50 = +++) | 63 (IYFSNTHFF; listed as Homo sapiens) [compound 63]
“++” (>20% = ++) | 64 (SFQSKATVF; listed as Homo sapiens) [compound 64]
“+++” (>50 = +++) | 69 (EYNTIKDKF; listed as Homo sapiens) [compound 69]
“+++” (>50 = +++) | 70 (LYSDIGHLL; listed as Homo sapiens) [compound 70]
“++++” (>75% = ++++) | 71 (RYLGKNWSF; listed as Homo sapiens) [compound 71]
“+++” (>50 = +++) | 72 (TYVENLRLL; listed as Homo sapiens) [compound 72]
“++++” (>75% = ++++) | 73 (TYPQLEGFKF; listed as Homo sapiens) [compound 73]
“+++” (>50 = +++) | 222 (RYLDEINLL; listed as Homo sapiens) [compound 222]

Tested on: CD8+ T cells
Experiment: In vitro T-cell priming assay (immunogenicity): repeated stimulation of CD8+ T cells with aAPCs loaded with peptide/MHC complexes and anti-CD28, pMHC multimer readout
Format: cell-based, human
Settings: Table 10a; healthy donors; three stimulation cycles; HLA-A*02 (278), HLA-A*24 (279)
Procedure: In order to obtain information regarding the immunogenicity of the TUMAPs of the present invention, the inventors performed investigations using an in vitro T-cell priming assay based on repeated stimulations of CD8+ T cells with artificial antigen presenting cells (aAPCs) loaded with peptide/MHC complexes and anti-CD28 antibody. […]
Generation of pMHC/anti-CD28 coated beads, T-cell stimulations and readout was performed in a highly defined in vitro system using four different pMHC molecules per stimulation condition and 8 different pMHC molecules per readout condition. […]
Stimulations were initiated in 96-well plates by co-incubating […] CD8+ T cells with 2×10^5 washed coated beads in 200 μl TCM supplemented with 5 ng/ml IL-12 (PromoCell) for 3 days at 37° C. […] For the pMHC multimer readout using 8 different pMHC molecules per condition, a two-dimensional combinatorial coding approach was used as previously described (Andersen et al., 2012) with minor modifications encompassing coupling to 5 different fluorochromes. […] Peptide specific cells were calculated as percentage of total CD8+ cells. […] In vitro priming of specific multimer+CD8+ lymphocytes was detected by comparing to negative control stimulations.

Substance | Wells positive [%]
278 (YLDRKLLTL; listed as Homo sapiens) [compound 278] | ++++ (>=70% = ++++)
279 (LYIDRPLPYL; listed as Homo sapiens) [compound 279] | ++++ (>=70% = ++++)

— patent US11135246B2, “Peptides and combination of peptides for use in immunotherapy against leukemias and other cancers” (Immatics Biotechnologies GmbH, priority 2017, dated 2021)
